Data published in patent EP4745157A1 (Korea Research Institute of Bioscience and Biotechnology, dated 2026).
Positions count from the first letter of the chain named. One block for each binder: values may come before it.

What was measured:
[1] = biological target: T1, TM4SF5-Fc antigen protein (UniProt O14894); assay: Biacore, TM4SF5-Fc immobilized directly on the chip
T1 sequence (looked up): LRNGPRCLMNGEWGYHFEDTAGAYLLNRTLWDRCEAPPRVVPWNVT

[2] = biological target: T2, TM4SF5 (antigen of SPR/BIACORE/ELISA, construct not stated) (UniProt O14894); assay: BIACORE
T2 sequence (looked up): T1 sequence (looked up)

[3] = biological target: T3, hEC2-Fc-myc antigen (human) (UniProt O14894); assay: Octet (BLI), IgG against hEC2-Fc-myc
T3 sequence (looked up): T1 sequence (looked up)

[4] = biological target: T3, hEC2-Fc-myc antigen (human); assay: ELISA, IgG against hEC2-Fc-myc
[5] = biological target: T2, TM4SF5 (antigen of SPR/BIACORE/ELISA, construct not stated); assay: SPR
[6] = biological target: T4, TM4SF5 (antigen of SPR/BIACORE/ELISA, construct not stated) (UniProt O14894 112-157, limits assumed); assay: SPR
T4 construct: also called TM4SF5 target
T4 chain (looked up): T1 sequence (looked up)

B2: S43 (G2) (antibody, V domains shown, not shown: a dimerising Fc or GST)
VH: QVQLVQSGAEVKKPGASVKVSCKASGYRFTDYEMHWVRQAPGQGLEWMGAIDPAFGGTAYNQKFKGRVTMTADKSISTAYMELSRLRSDDTAVYYCARPYLGYWGQGTLVTVSS
VL: EIVLTQSPGTLSLSPGERATLSCRSSQSLVHSNGNTYLHWYQQKPGQAPRLLIYKVSNRFSGIPDRFSGSGSGTDFTLTISRLEPEDFAVYYCFQGSHIPLTFGQGTKVEIKG
fold reduction in affinity against S43 [2]: 1.5 fold

B3: 2-1 IgG (antibody, V domains shown)
VH: B2 VH with R28T, A54E, F55T, A59F, Y60V, N61V, Q62S
VL: EIVLTQSPGTLSLSPGERATLSCRSSQSLVHSNGNTYLHWYQQKPGQAPRLLIYKVSNRFSGIPDRFSGSGSGTDFTLTISRLEPEDFAVYYCFQGSHIPLTFGQGTKVEIK
fold improvement of KD relative to huAb27-9 [3]: 12.6 fold
fold improvement of EC50 relative to huAb27-9 [4]: 41.4 fold

B6: 1-5 IgG (antibody, V domains shown)
VH: B2 VH with R28T, A54E, F55T, A59F, Y60V, N61K, Q62R
VL: B3 VL
notes: IgG; also called T1-5
fold improvement of KD relative to huAb27-9 [3]: 7.7 fold
Kd [6]: 3.94 nM
fold improvement of KD against chimeric Ab27 [6]: ~4 fold
fold improvement of KD against humanized Ab27-hz9 [6]: ~2.4 fold

Next, values leading:

fold improvement of antigen-binding affinity against parent huAb27-9 [1]: 3 fold
B1: huAb27-9_E01 IgG (antibody, V domains shown)
VH: B2 VH with Q1E, E10D, K13E, R28T, A54E, F55T, R67W, A97T
VL: B2 VL with T10M, S32R, G113R

fold improvement in affinity against EO1 [2]: 2 fold
B4: EO1 H(G)L(GG) (antibody, V domains shown, not shown: a dimerising Fc or GST)
VH: B2 VH with Q1E, E10D, K13E, R28T, A54E, F55T, R67W, A97T
VL: B2 VL with T10M, S32R

Kd [5]: 7.23 nM
fold difference in affinity against Ab27 scFv-Fc [5]: 1.4 fold
B5: huAb27-9 scFv-Fc (Fc fusion, part only; not given: linker, domain order, hinge-Fc, not shown: another chain or arm of the molecule; a dimerising Fc or GST; small tags and cut ends)
VH: B2 VH with R28T, A54E, F55T
VL: B3 VL

Kd [6]: 9.46 nM
B7: huAb27-9 IgG (antibody, V domains shown)
VH: B2 VH with R28T, A54E, F55T
VL: B2 VL with G113R
notes: IgG1 format; also called Hz#9 IgG; Hz #9 IgG

Kd [6]: 4.19 nM
fold improvement of KD against chimeric Ab27 [6]: ~4 fold
fold improvement of KD against humanized Ab27-hz9 [6]: ~2.4 fold
B8: S43 IgG (antibody, V domains shown)
VH: B2 VH
VL: B3 VL
notes: IgG1; also called huAb27-9_M74; M74
